Assay results reported in PMC3307390 (Journal of Immunology (Baltimore, Md. : 1950), 2010).
Peptide text beside a SMILES is read from it.

Tests used:
DQA1*0102/DQB1*0602 = DQA1*0102/DQB1*0602 (Homo sapiens, UniProt P01909+P01920, A157G/A45G/C70R/E118A/E183D/E77G/F83G/G63E/H151Q/H199R/H252R/H253Q/I129T/I235V/I88M/INS77G/K197Q/L117V/L119F/L178F/L71W/L74F/L85Q/L91A/L98M/N214S/P87R/Q116E/Q76K/R102G/R240Q/R75S/R78G/S102Y/S185I/S41F/S97I/T121G/T122I/T172A/T86R/V229M/V68A/V73E/Y34C/Y41F/Y58L); assay: biochemical; format: binding
DQA1*0501/DQB1*0201 = DQA1*0501/DQB1*0201 (Homo sapiens, UniProt P01909+P01920, A45G/A70V/D89A/E106A/E77G/E98D/H199R/L107V/N214S/P84L/P87L/T103K/T109R/T172A/T60S/V78E/V99I/Y58L/Y62S/Y69I/Y79F); assay: biochemical
DQA1*0101/DQB1*0501 = DQA1*0101/DQB1*0501 (Homo sapiens, UniProt P01909+P01920, A157S/A45G/A70V/C70R/D89V/E106S/E118A/E183D/E77G/F83G/G63E/H151Q/H199R/H252R/H253Q/I129T/I235V/I88M/INS77G/K197Q/L107V/L117V/L119Y/L178F/L71W/L74F/L85Q/L91A/L98M/M46L/N214S/P87R/Q116E/Q256R/Q57E/Q76K/R102G/R240Q/R75S/R78G/S102Y/S185I/S41F/S97I/T103A/T109R/T121G/T122I/T172A/T86R/V148I/V68A/V73E/Y34C/Y58G/Y62H); assay: biochemical; format: binding
[1] = biological target: HLA-DQ DQA1*0301/DQB1*0302 (human (endogenous in EBV-transformed cell line Preiss)); assay: radioligand binding
[2] = biological target: HLA-DQ DQA1*0501/DQB1*0201 (human (endogenous in EBV-transformed cell line VAVY)); assay: radioligand binding
[3] = biological target: HLA-DQ DQA1*0101/DQB1*0501 (human (endogenous in EBV-transformed cell line LG2)); assay: radioligand binding

Molecule: CC[C@H](C)[C@H](N)C(=O)N[C@@H](CC(N)=O)C(=O)N[C@@H](CCC(=O)O)C(=O)N1CCC[C@H]1C(=O)N[C@H](C(=O)N[C@@H](C)C(=O)N[C@@H](C)C(=O)N[C@@H](C)C(=O)N[C@H](C(=O)N[C@@H](C)C(=O)N[C@@H](Cc1ccc(O)cc1)C(=O)NCC(=O)N[C@@H](CC(C)C)C(=O)N[C@@H](CC(=O)O)C(=O)N[C@@H](CCCNC(=N)N)C(=O)O)[C@@H](C)CC)[C@@H](C)O (H-INEPTAAAIAYGLDR-OH)
- IC50 (DQA1*0102/DQB1*0602): 6.3 nM

Molecule: CC[C@H](C)[C@H](NC(=O)[C@H](CO)NC(=O)[C@H](CCC(=O)O)NC(=O)[C@H](C)NC(=O)[C@H](CCC(=O)O)NC(=O)[C@H](CCSC)NC(=O)[C@H](CCC(N)=O)NC(=O)[C@H](CCCCN)NC(=O)[C@@H](NC(=O)[C@H](CC(=O)O)NC(=O)[C@H](CCC(=O)O)NC(=O)[C@H](CCSC)NC(=O)[C@H](C)NC(=O)[C@H](CCC(N)=O)NC(=O)[C@H](CC(=O)O)NC(=O)[C@H](CCC(=O)O)NC(=O)[C@@H](N)[C@@H](C)O)[C@@H](C)CC)C(=O)N[C@@H](CO)C(=O)O
- IC50 (DQA1*0501/DQB1*0201): 439 nM

Molecule: CC(C)C[C@H](NC(=O)[C@@H](NC(=O)[C@H](Cc1c[nH]cn1)NC(=O)[C@H](CO)NC(=O)[C@H](Cc1ccccc1)NC(=O)[C@H](CO)NC(=O)CNC(=O)CNC(=O)[C@H](CC(C)C)NC(=O)[C@H](Cc1ccc(O)cc1)NC(=O)[C@H](CCCNC(=N)N)NC(=O)[C@H](Cc1ccc(O)cc1)NC(=O)[C@H](CC(C)C)NC(=O)[C@@H]1CCCN1)C(C)C)C(=O)O
- IC50 (DQA1*0101/DQB1*0501): 2460 nM

B1: Gallus gallus ovomucoid peptide … (peptide)
peptide: DCLLCAYSIEFGTNISKEHD
- IC50 [1]: 146 nM

B2: Bos taurus a-S1 casein peptide … (peptide)
peptide: TEDQAMEDIKQMEAESIS
- IC50 [2]: 439 nM

B3: H. sapiens GAD65 peptide … (peptide)
peptide: RMMEYGTTMVSYQPL
- IC50 [1]: 185 nM

B4: H. sapiens B2-m peptide … (peptide)
peptide: TPTEKDEYCARVNH
- IC50 [1]: 29500 nM

B5: C. trachomatis enolase peptide … (peptide)
peptide: PLYRYLGGSFSHVL
- IC50 [3]: 2460 nM

B6: H. sapiens GAD65 peptide … (peptide)
peptide: FDRSTKVIDFHYPNE
- IC50 [1]: 3960 nM

B7: Homo sapiens Ii chain peptide … (peptide)
peptide: KPVSKMRMATPLLMQALP
- IC50 [2]: 30 nM
